Legend:
[1] = target: hemagglutinin (HA) of influenza B/Harbin/7/94 (Yamagata) (influenza B virus); experiment: cell-based or functional assay
[2] = target: hemagglutinin (HA) of influenza B/Lee/40 (Old) (influenza B virus) (UniProt P03460); experiment: cell-based or functional assay
Chain of hemagglutinin (HA) of influenza B/Lee/40 (Old) (influenza B virus) (P03460 16-584 limits assumed): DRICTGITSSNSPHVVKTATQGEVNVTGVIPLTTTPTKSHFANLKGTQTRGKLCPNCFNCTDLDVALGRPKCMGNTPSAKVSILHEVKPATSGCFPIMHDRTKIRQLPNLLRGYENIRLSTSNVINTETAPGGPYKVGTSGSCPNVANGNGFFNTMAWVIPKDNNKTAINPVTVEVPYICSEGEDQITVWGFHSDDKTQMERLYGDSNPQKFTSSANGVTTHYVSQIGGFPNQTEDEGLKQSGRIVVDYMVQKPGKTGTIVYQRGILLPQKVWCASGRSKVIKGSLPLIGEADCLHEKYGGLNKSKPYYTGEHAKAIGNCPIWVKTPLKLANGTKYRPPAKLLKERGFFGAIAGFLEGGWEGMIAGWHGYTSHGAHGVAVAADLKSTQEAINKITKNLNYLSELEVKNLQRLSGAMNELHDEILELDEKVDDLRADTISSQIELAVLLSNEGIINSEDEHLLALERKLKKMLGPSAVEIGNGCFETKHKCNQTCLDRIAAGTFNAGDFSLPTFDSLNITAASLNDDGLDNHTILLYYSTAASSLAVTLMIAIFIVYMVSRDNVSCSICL

B1: SD3007 (VHH)
VHH: EVQLLESGGGLVQPGGSLRLSCAASGFTLENKAIGWFRQAPGKEREGVSCISKSGSWTYYADSVKGRFTISRDNSKNTVYLQMNSLRAEDTAVYYCATTTAGGGLCWDGTTFSRLASSWGQGTQVTVSS
- VNA IC50 [1]: > 1000 nM
- VNA IC50 [2]: > 1000 nM

B2: SD3008 (VHH)
VHH: EVQLLESGGGLVQPGGSLRLSCAASGFTLENKAIGWFRQAPGKEREGVSCISKSGSWTYYADSVKGRFTISRDNSKNTVYLQMNSLRPEDTAVYYCATTTAGGGLCWDGTTFSRLASSWGQGTQVTVSS
- VNA IC50 [1]: > 1000 nM
- VNA IC50 [2]: > 1000 nM

B3: SD3009 (VHH)
VHH: EVQLLESGGGLVQPGGSLRLSCAASGFTLENKAMSWFRQAPGKEREGVLCISKSGSWTYYADSVKGRFTISRDNSKNTLYLQMNSLRAEDTAVYYCATTTAGGGLCWDGTTFSRLASSWGQGTQVTVSS
- VNA IC50 [1]: 516 nM
- VNA IC50 [2]: 372 nM

B4: SD3010 (VHH)
VHH: EVQLLESGGGLVQPGGSLRLSCAASGFTLENKAIGWFRQAPGKEREGVLCISKSGSWTYYADSVKGRFTISRDNSKNTLYLQMNSLRAEDTAVYYCATTTAGGGLCWDGTTFSRLASSWGQGTQVTVSS
- VNA IC50 [1]: 173 nM
- VNA IC50 [2]: 227 nM

B5: SD3011 (VHH)
VHH: EVQLLESGGGLVQPGGSLRLSCAASGFTLENKAIGWFRQAPGKEREGVLCISKSGSWTYYADSVKGRFTISRDNSKNTVYLQMNSLRAEDTAVYYCATTTAGGGLCWDGTTFSRLASSWGQGTQVTVSS
- VNA IC50 [1]: 96 nM
- VNA IC50 [2]: 59 nM

B6: SD3012 (VHH)
VHH: EVQLLESGGGLVQPGGSLRLSCAASGFTLENKAIGWFRQAPGKEREGVLCISKSGSWTYYADSVKGRFTISRDNSKNTVYLQMNSLRPEDTAVYYCATTTAGGGLCWDGTTFSRLASSWGQGTQVTVSS
- VNA IC50 [1]: 78 nM
- VNA IC50 [2]: 60 nM

B7: SD3088 (VHH)
VHH: EVQLLESGGGLVQPGGSLRLSCAASGFTLENKAIGWFRQAPGKEREGVLCISKSGSWTYYADSVKGRFTISRDNSKNTLYLQMNSLRAEDTAVYYCATTTAGGGLCWDGTTFSRLASSWGQGTLVTVSS
- VNA IC50 [2]: 127 nM

B8: SD3001 (VHH)
VHH: EVQLVESGGGLVQPGGSLRLSCAASGFTFSTSWMSWLRQAPGKGLEWVSVINTDGGTYYADSVKGRFTISRDNSKNTLYLQMNSLRAEDTAVYYCAKDWGGPEPTRGQGTQVTVSS
- VNA IC50 [1]: > 1000 nM
- VNA IC50 [2]: > 1000 nM

B9: SD3002 (VHH)
VHH: EVQLVESGGGLVQPGGSLRLSCAASGFTFSTSWMYWLRQAPGKGLEWVSVINTDGGTYYADSVKGRFTISRDNSKNTLYLQMNSLRAEDTAVYYCAKDWGGPEPTRGQGTQVTVSS
- VNA IC50 [1]: 137 nM
- VNA IC50 [2]: > 1000 nM

B10: SD3003 (VHH)
VHH: EVQLVESGGGLVQPGGSLRLSCAASGFTFSTSWMSWLRQAPGKGLEWVSVINTDGGTYYADSVKGRFTISRDNSKDTLYLQMNSLRAEDTAVYYCAKDWGGPEPTRGQGTQVTVSS
- VNA IC50 [1]: > 1000 nM
- VNA IC50 [2]: > 1000 nM

B11: SD3004 (VHH)
VHH: EVQLVESGGGLVQPGGSLRLSCAASGFTFSTSWMYWLRQAPGKGLEWVSVINTDGGTYYADSVKGRFTISRDNSKDTLYLQMNSLRAEDTAVYYCAKDWGGPEPTRGQGTQVTVSS
- VNA IC50 [1]: 101 nM
- VNA IC50 [2]: > 1000 nM

B12: SD3086 (VHH)
VHH: EVQLVESGGGLVQPGGSLRLSCAASGFTFSTSWMYWVRQAPGKGLEWVSVINTDGGTYYADSVKGRFTISRDNSKNTLYLQMNSLRAEDTAVYYCAKDWGGPEPTRGQGTLVTVSS
- VNA IC50 [2]: > 1000 nM

B13: SD3049 (VHH)
VHH: EVQLVESGGGLVQPGGSLRLSCAASGLSLDTYAMSWFRQAPGKEREGVSCISSGHGMTYYADSVKGRFTISRDNSKNTLYLQMNSLQPEDTARYYCATESRYYCSDNWPAPQRYIYWGQGTQVTVSS
- VNA IC50 [1]: > 1000 nM

B14: SD3050 (VHH)
VHH: EVQLVESGGGLVQPGGSLRLSCAASGLSLDTYAMSWFRQAPGKEREGITCISSGHGMTYYADSVKGRFTISRDNSKNTLYLQMNSLQPEDTARYYCATESRYYCSDNWPAPQRYIYWGQGTQVTVSS
- VNA IC50 [1]: > 1000 nM

B15: SD3051 (VHH)
VHH: EVQLVESGGGLVQPGGSLRLSCAASGLSLDTYAMSWFRQAPGKEREGVSCISSGHGITYYADSVKGRFTISRDNSKNTLYLQMNSLQPEDTARYYCATESRYYCSDNWPAPQRYIYWGQGTQVTVSS
- VNA IC50 [1]: > 1000 nM

B16: SD3052 (VHH)
VHH: EVQLVESGGGLVQPGGSLRLSCAASGLSLDTYAMSWFRQAPGKEREGVSCISSGHGLTYYADSVKGRFTISRDNSKNTLYLQMNSLQPEDTARYYCATESRYYCSDNWPAPQRYIYWGQGTQVTVSS
- VNA IC50 [1]: > 1000 nM

B17: SD3053 (VHH)
VHH: EVQLVESGGGLVQPGGSLRLSCAASGLSLDTYAMSWFRQAPGKEREGVSCISSGHGFTYYADSVKGRFTISRDNSKNTLYLQMNSLQPEDTARYYCATESRYYCSDNWPAPQRYIYWGQGTQVTVSS
- VNA IC50 [1]: > 1000 nM

B18: SD3054 (VHH)
VHH: EVQLVESGGGLVQPGGSLRLSCAASGLSLDTYAMSWFRQAPGKEREGITCISSGHGITYYADSVKGRFTISRDNSKNTLYLQMNSLQPEDTARYYCATESRYYCSDNWPAPQRYIYWGQGTQVTVSS
- VNA IC50 [1]: > 1000 nM

B19: SD3055 (VHH)
VHH: EVQLVESGGGLVQPGGSLRLSCAASGLSLDTYAMSWFRQAPGKEREGITCISSGHGLTYYADSVKGRFTISRDNSKNTLYLQMNSLQPEDTARYYCATESRYYCSDNWPAPQRYIYWGQGTQVTVSS
- VNA IC50 [1]: > 1000 nM

B20: SD3056 (VHH)
VHH: EVQLVESGGGLVQPGGSLRLSCAASGLSLDTYAMSWFRQAPGKEREGITCISSGHGFTYYADSVKGRFTISRDNSKNTLYLQMNSLQPEDTARYYCATESRYYCSDNWPAPQRYIYWGQGTQVTVSS
- VNA IC50 [1]: > 1000 nM

B21: SD3069 (VHH)
VHH: EVQLVESGGGLVQPGGSLRLSCAISGLSLDTYAVGWFRQAPGKEREGITCISSGHGMTYYADSVKGRFTVSTDNSKNTLYLQMNSLRAEDTAVYYCATESRYYCSDNWPAPQRYIYWGQGTLVTVSS
- VNA IC50 [1]: > 1000 nM
- VNA IC50 [2]: 67 nM

B22: SD3070 (VHH)
VHH: EVQLVESGGGLVQPGGSLRLSCAISGLSLDTYAVGWFRQAPGKEREGITCISSGHGITYYADSVKGRFTVSTDNSKNTLYLQMNSLRAEDTAVYYCATESRYYCSDNWPAPQRYIYWGQGTLVTVSS
- VNA IC50 [1]: > 1000 nM
- VNA IC50 [2]: > 1000 nM

B23: SD3071 (VHH)
VHH: EVQLVESGGGLVQPGGSLRLSCAISGLSLDTYAVGWFRQAPGKEREGITCISSGHGLTYYADSVKGRFTVSTDNSKNTLYLQMNSLRAEDTAVYYCATESRYYCSDNWPAPQRYIYWGQGTLVTVSS
- VNA IC50 [1]: > 1000 nM
- VNA IC50 [2]: > 1000 nM

B24: SD3072 (VHH)
VHH: EVQLVESGGGLVQPGGSLRLSCAASGLSLDTYAVGWFRQAPGKEREGITCISSGHGMTYYADSVKGRFTVSTDNSKNTLYLQMNSLRAEDTAVYYCATESRYYCSDNWPAPQRYIYWGQGTLVTVSS
- VNA IC50 [1]: > 1000 nM
- VNA IC50 [2]: 318 nM

B25: SD3073 (VHH)
VHH: EVQLVESGGGLVQPGGSLRLSCAISGLSLDTYAVGWFRQAPGKEREGVSCISSGHGMTYYADSVKGRFTVSTDNSKNTLYLQMNSLRAEDTAVYYCATESRYYCSDNWPAPQRYIYWGQGTLVTVSS
- VNA IC50 [1]: > 1000 nM
- VNA IC50 [2]: 59 nM

B26: SD3074 (VHH)
VHH: EVQLVESGGGLVQPGGSLRLSCAISGLSLDTYAVGWFRQAPGKEREGITCISSGHGMTYYADSVKGRFTISTDNSKNTLYLQMNSLRAEDTAVYYCATESRYYCSDNWPAPQRYIYWGQGTLVTVSS
- VNA IC50 [1]: > 1000 nM
- VNA IC50 [2]: 42 nM

B27: SD3075 (VHH)
VHH: EVQLVESGGGLVQPGGSLRLSCAASGLSLDTYAVGWFRQAPGKEREGVSCISSGHGITYYADSVKGRFTISTDNSKNTLYLQMNSLRAEDTAVYYCATESRYYCSDNWPAPQRYIYWGQGTLVTVSS
- VNA IC50 [1]: > 1000 nM
- VNA IC50 [2]: > 1000 nM

B28: SD3076 (VHH)
VHH: EVQLVESGGGLVQPGGSLRLSCAASGLSLDTYAVGWFRQAPGKEREGVSCISSGHGLTYYADSVKGRFTISTDNSKNTLYLQMNSLRAEDTAVYYCATESRYYCSDNWPAPQRYIYWGQGTLVTVSS
- VNA IC50 [1]: > 1000 nM
- VNA IC50 [2]: > 1000 nM

B29: SD3100 (VHH)
VHH: EVQLVESGGGLVQPGGSLRLSCAISGLSLDTYAVGWFRQAPGKEREGVSCISSGHGATYYADSVKGRFTISTDNSKNTLYLQMNSLRAEDTAVYYCATESRYYCSDNWPAPQRYIYWGQGTLVTVSS
- VNA IC50 [1]: > 1000 nM
- VNA IC50 [2]: > 1000 nM

B30: SD3101 (VHH)
VHH: EVQLVESGGGLVQPGGSLRLSCAISGLSLDTYAVGWFRQAPGKEREGVSCISSGHGSTYYADSVKGRFTISTDNSKNTLYLQMNSLRAEDTAVYYCATESRYYCSDNWPAPQRYIYWGQGTLVTVSS
- VNA IC50 [1]: > 1000 nM
- VNA IC50 [2]: > 1000 nM

B31: SD3102 (VHH)
VHH: EVQLVESGGGLVQPGGSLRLSCAISGLSLDTYAVGWFRQAPGKEREGVSCISSGHGQTYYADSVKGRFTISTDNSKNTLYLQMNSLRAEDTAVYYCATESRYYCSDNWPAPQRYIYWGQGTLVTVSS
- VNA IC50 [1]: > 1000 nM
- VNA IC50 [2]: > 1000 nM
